The values that follow are results of earlier work, collected in PMC5830169.

The target in the data set is rhodopsin (UniProt P02699).
UniProt P02699, sequence (P02699 whole entry): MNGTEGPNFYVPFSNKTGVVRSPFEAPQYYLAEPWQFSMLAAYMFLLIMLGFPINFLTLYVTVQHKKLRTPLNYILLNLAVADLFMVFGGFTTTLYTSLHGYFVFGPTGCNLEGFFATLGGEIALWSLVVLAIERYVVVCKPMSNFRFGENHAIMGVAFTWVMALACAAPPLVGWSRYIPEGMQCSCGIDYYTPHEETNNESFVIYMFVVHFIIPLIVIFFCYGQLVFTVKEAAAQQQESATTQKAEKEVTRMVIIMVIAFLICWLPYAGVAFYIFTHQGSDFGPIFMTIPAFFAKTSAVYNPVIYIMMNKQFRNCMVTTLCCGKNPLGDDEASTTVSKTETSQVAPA

With visual arrestin (from UniProt P10523), the Kd was 50 nM.

In general, Kd refers to a measure of binding affinity in units of concentration.
